Measurements as given in article PMC8640019.

Tests used:
Assay in all cases: SPR
Details in all cases: remark: other sources report otherwise
SPR [1] = substrate: CIS F116L-EloB/C (human), Q9NSE2
SPR [2] = substrate: CIS R78G-EloB/C + F3 (human), Q9NSE2
SPR [3] = substrate: CIS F74L-EloB/C + F3 (human), Q9NSE2
SPR [4] = substrate: CIS F74, F116L-EloB/C (human), Q9NSE2
[5] = biological target: SOCS2 FL + F3 (human), O14508
SPR [6] = substrate: CIS R78G, F116L-EloB/C (human), Q9NSE2
SPR [7] = substrate: CIS F74, F116L-EloB/C + F3 (human), Q9NSE2
[8] = biological target: CIS-Elo B/C + F3 (human), Q9NSE2
SPR [9] = substrate: CIS R78G-EloB/C (human), Q9NSE2
SPR [10] = substrate: CIS R78G, F116L-EloB/C + F3 (human), Q9NSE2

Chain of SOCS2 FL + F3 (human), O14508 (O14508 whole entry, chain 1 of 3): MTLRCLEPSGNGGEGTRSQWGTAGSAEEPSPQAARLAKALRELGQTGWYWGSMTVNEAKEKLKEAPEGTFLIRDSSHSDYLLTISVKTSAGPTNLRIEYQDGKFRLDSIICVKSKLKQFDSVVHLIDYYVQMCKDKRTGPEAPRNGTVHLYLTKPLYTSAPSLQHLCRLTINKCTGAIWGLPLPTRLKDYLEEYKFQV
Chain of SOCS2 FL + F3 (human), O14508 (Q15370 whole entry, chain 2 of 3, further chain): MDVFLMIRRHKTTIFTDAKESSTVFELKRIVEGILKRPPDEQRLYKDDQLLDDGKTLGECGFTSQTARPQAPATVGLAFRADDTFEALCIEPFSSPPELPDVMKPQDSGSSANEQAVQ
Chain of SOCS2 FL + F3 (human), O14508 (Q15369 17-112, chain 3 of 3, further chain): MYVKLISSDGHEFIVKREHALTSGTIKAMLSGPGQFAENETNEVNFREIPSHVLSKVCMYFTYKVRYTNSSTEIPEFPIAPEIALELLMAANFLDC

IC50 (SPR [1]): 6.6 µM
IC50 (SPR [2]): 2 µM
IC50 (SPR [3]): 4.2 µM
IC50 (SPR [4]): 7 µM
IC50 [5]: 0.2 µM
IC50 (SPR [6]): 20 µM
IC50 (SPR [7]): 3.7 µM
IC50 [8]: 4.3 µM
IC50 (SPR [9]): 6.7 µM
IC50 (SPR [10]): 8.8 µM
Binder: PVPDYTSIHIV (here or on the partner: phosphotyrosine at 595) [GHR pY595 peptide]
